A short description of test [1]: Binding of P-EGFs to TiO2 plate, anti-EGF antibody chemiluminescence detection. To be noted: about 2.0 ng, 10 μl in TBS pH 7.5; washed 3 times with TBS-T; anti-human EGF antibody and HRP secondary. As for the experimental part: Subsequently, in accordance with a scheme in the left in FIG. 4-2, various P-EGF solutions (about 2.0 ng, 10 μl in TBS, pH 7.5) were added on a TiO2 plate (a plate produced by vapor deposition of titanium on the surface of a glass plate with a diameter of 15 mm and a thickness of 0.6 mm (manufactured by Matsunami Glass Ind., Ltd.) (the vapor deposition step was requested to Osaka Vacuum Industrial Co., Ltd.) was used); and a washing operation (TBS-T buffer, pH 7.5) was repeated 3 times. And, after blocking with 0.1% BSA solution, an anti-human EGF antibody was added as a primary antibody. Furthermore, after the washing operation (TBS-T buffer, pH 7.5) was repeated 3 times, an anti-mouse IgG antibody HRP conjugate was added as a secondary antibody. At the end, using a luminescent phenomenon by a reaction between a chemiluminescence reagent and HRP as an index, the presence of protein immobilized on the TiO2 plate was detected. […]
First, in accordance with a scheme in the left in FIG. 7-1, various P-EGF solutions (about 2.0 ng, 10 μl in TBS, pH 7.5) were added on a TiO2 plate and a washing operation (TBS-T buffer, pH 7.5) was repeated 3 times. […] At the end, using a luminescent phenomenon by a reaction between a chemiluminescence reagent and HRP as an index, the presence of protein immobilized on the TiO2 plate was detected.

Test [2] has as its system NRK-49F fibroblasts. Description: NRK-49F fibroblast proliferation on sTOP1-EGF immobilized TiO2 plate. As to conditions: about 5.0 ng immobilized; ca. 5,000 cells seeded; 6 days; 1% FBS DMEM; vs TiO2 plate with EGF alone added. In kind it is cell-based. As for the experimental part:
First, in accordance with a scheme in the left in FIG. 7-2, sTOP1-EGF solution (about 5.0 ng, 12 μl in TBS, pH 7.5) was added onto the TiO2 plate and a washing operation (TBS-T buffer, pH 7.5) was then repeated 3 times. And, by blocking with 0.1% BSA solution, a “sTOP1-EGF immobilized TiO2 plate” was prepared. And then, ca. 5,000 NRK-49F fibroblasts were seeded on the sTOP1-EGF immobilized TiO2 plate, cultured for 6 days (1% FBS containing DMEM medium was used), and subjected to microscopy (cells were not stained).

B1: MQAYYNYYSNYYGRSYSSDGQLGQFEGNSDSECPLSHDGYCLHDGVCMYI EALDKYACNCVVGYIGERCQYRDLKWWELR (peptide)
chain: MQAYYNYYSNYYGRSYSSDGQLGQFEGNSDSECPLSHDGYCLHDGVCMYIEALDKYACNCVVGYIGERCQYRDLKWWELR
notes: chemically synthesized TOP1-EGF composed of 80 amino acids, made by peptide solid phase method
Take B1: the “TiO2 plate binding (luminescent phenomenon of protein immobilized on the plate)” value in test [1] is given as “the luminescent phenomenon could be confirmed”. In addition, the “Proliferation of NRK-49F fibroblasts on the immobilized TiO2 plate (microscopy)” value in test [2] is on record as “markedly proliferated”.

The values above are taken from patent US8697655B2, “Method of selecting polypeptide sequence, and metal oxide or silicon-containing compound binding peptide and use thereof” (Riken, priority 2010, dated 2014).
